Among the data in article PMC7145517 are Kd and fold loss in binding against wild-type Cfp1 values, retold here.

For assay [1], the target named is Myceliophteria thermophila RbBP5 β-propeller domain (residues 1-347). The assay can be described thus: ITC. The conditions noted are these: parent: 0.25.
Assay [2] concerns the target Myceliophteria thermophila RbBP5 β-propeller domain (residues 1-347) (Myceliophteria thermophila). Description: ITC; VP-ITC; CtCfp1 RID (350 μM) injected into MtRbBP5 β-propeller (35 μM); 20°C; 50 mM Tris pH 8.0, 200 mM NaCl, 2.5 mM β-mercaptoethanol.

pKd: −log10 of the molar value.

By pKd is commonly meant −log10 of the Kd, conventionally taken in molar units.

For the substance “Chaetomium thermophilum Cfp1 RID domain (residues 322-508) Y380A”, the pKd in assay [1] is 5.39. With “Chaetomium thermophilum Cfp1 RID domain, Tyr380 substituted by an alanine (domain or fragment)”, the fold loss in binding against wild-type Cfp1 in assay [2] is 20 fold.
